From US20050215472A1 come the findings set out here.

Assay [1] concerns the target prostate specific membrane antigen (PSMA), full-length human (human) (UniProt Q04609). As to the kind of experiment: cell-bound fraction of 111In mAb, PSMA-3T3 cells.
For assay [2] the target is unchanged. Put plainly: cell-bound fraction of 111In mAb, average.
For assay [3] the target is unchanged. Put plainly: cell-based or functional assay.

“And” between values parts separate entries of the source, which are not always exact repeats. Equal values may be shown once.

Chain of prostate specific membrane antigen (PSMA), full-length human (human) (Q04609 whole entry): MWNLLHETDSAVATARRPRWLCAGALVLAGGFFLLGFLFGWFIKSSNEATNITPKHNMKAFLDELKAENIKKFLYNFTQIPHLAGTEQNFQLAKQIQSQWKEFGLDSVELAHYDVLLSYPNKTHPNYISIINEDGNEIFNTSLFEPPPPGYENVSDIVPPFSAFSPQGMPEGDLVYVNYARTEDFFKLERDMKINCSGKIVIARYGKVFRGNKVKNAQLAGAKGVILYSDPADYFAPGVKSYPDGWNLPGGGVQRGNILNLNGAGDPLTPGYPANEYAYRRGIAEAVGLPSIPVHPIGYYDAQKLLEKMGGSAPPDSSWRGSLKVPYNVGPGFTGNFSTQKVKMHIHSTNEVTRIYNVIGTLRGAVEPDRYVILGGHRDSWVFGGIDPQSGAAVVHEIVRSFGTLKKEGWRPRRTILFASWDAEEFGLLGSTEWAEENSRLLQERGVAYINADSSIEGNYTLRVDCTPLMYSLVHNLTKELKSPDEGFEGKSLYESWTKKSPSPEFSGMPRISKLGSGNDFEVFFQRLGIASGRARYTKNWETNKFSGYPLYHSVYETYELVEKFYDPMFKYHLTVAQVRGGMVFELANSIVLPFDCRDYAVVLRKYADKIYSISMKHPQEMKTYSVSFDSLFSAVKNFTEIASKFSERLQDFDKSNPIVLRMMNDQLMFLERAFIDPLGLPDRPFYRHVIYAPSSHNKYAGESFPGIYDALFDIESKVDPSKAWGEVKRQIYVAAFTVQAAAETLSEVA

As to “111In radiolabeled CHX-A''-DTPA mJ591 (antibody)”, the Immunoreactivity (%) in assay [1] was 58.5% and 54.9%. Besides, the Immunoreactivity (%), average in assay [2] came out at 56.7%.

With mAb J591 (antibody), in assay [3], the LD50, immunotoxin (Mab-Zap saporin) cytotoxicity on C4-2 cells turned out to be 88.2 pM and the LD50, immunotoxin (Mab-Zap saporin) cytotoxicity on PSMA-3T3 cells came to 89 pM.
